Key:
[1] = inside-out patch clamp, G-V Boltzmann fits, 0 Ca2+; settings: glycan lost, untreated cells; for other: BK channel gating modulation: control: γ2 WT
[2] = whole-cell lysate anti-FLAG immunoblot; settings: glycan lost, untreated cells
[3] = inside-out patch clamp, G-V, 0 Ca2+; settings: glycan lost; control: γ3 WT, untreated cells
[4] = cell surface immunoprecipitation, N-terminal FLAG; settings: glycan lost, untreated cells; for localisation_or_trafficking, other: percent decrease: control: γ1 WT

B1: BK channel γ2 subunit (LRRC52): N148Q (protein)
parent chain: MSLASGPGPGWLLFSFGMGLVSGSKCPNNCLCQAQEVICTGKQLTEYPLDIPLNTRRLFLNENRITSLPAMHLGLLSDLVYLDCQNNRIREVMDYTFIGVFKLIYLDLSSNNLTSISPFTFSVLSNLVQLNIANNPHLLSLHKFTFANTTSLRYLDLRNTGLQTLDSAALYHLTTLETLFLSGNPWKCNCSFLDFAIFLIVFHMDPSDDLNATCVEPTELTGWPITRVGNPLRYMCITHLDHKDYIFLLLIGFCIFAAGTVAAWLTGVCAVLYQNTRHKSSEEDEDEAGTRVEVSRRIFQTQTSSVQEFPQLI
[1]
  other: BK channel gating modulation: decreases

B2: BK channel γ2 subunit (LRRC52): triple-site mutant (N112Q/N148Q/N211Q) (protein)
parent chain: B1 parent chain
[2]; control: γ2 WT
  expression_or_secretion: decreases

B3: BK channel γ2 subunit (LRRC52): N112Q/N211Q (protein)
parent chain: B1 parent chain
[1]
  other: BK channel gating modulation: decreases

B4: BK channel γ2 subunit (LRRC52): N148Q/N211Q (protein)
parent chain: B1 parent chain
[1]
  other: BK channel gating modulation: decreases

B5: BK channel γ2 subunit (LRRC52): N112Q/N148Q (protein)
parent chain: B1 parent chain
[1]
  other: BK channel gating modulation: decreases

B6: BK channel γ2 subunit (LRRC52): tunicamycin (protein)
parent chain: B1 parent chain
[2]; control: γ2 WT
  expression_or_secretion: decreases
[1]
  other: BK channel gating modulation: abolishes

B7: BK channel γ2 subunit (LRRC52): N211Q (protein)
parent chain: B1 parent chain
[1]
  other: BK channel gating modulation: decreases

B8: BK channel γ2 subunit (LRRC52): N112Q (protein)
parent chain: B1 parent chain
[1]
  other: BK channel gating modulation: decreases

B9: BK channel γ3 subunit (LRRC55): tunicamycin (protein)
parent chain: MGDTWAQLPWPGPPHPAMLLISLLLAAGLMHSDAGTSCPVLCTCRNQVVDCSSQRLFSVPPDLPMDTRNLSLAHNRITAVPPGYLTCYMELQVLDLHNNSLMELPRGLFLHAKRLAHLDLSYNNFSHVPADMFQEAHGLVHIDLSHNPWLRRVHPQAFQGLMQLRDLDLSYGGLAFLSLEALEGLPGLVTLQIGGNPWVCGCTMEPLLKWLRNRIQRCTADSQLAECRGPPEVEGAPLFSLTEESFKACHLTLTLDDYLFIAFVGFVVSIASVATNFLLGITANCCHRWSKASEEEEI
[3]
  other: BK channel gating modulation, other: V1/2: abolishes, 160.1 ± 7.4 vs 115.0 ± 1.7
[4]; control: γ3 WT
  localisation_or_trafficking: abolishes

B10: BK channel γ1 subunit (LRRC26): tunicamycin (protein)
parent chain: MRGPSWSRPRPLLLLLLLLSPWPVWAQVSATASPSGSLGAPDCPEVCTCVPGGLASCSALSLPAVPPGLSLRLRALLLDHNRVRALPPGAFAGAGALQRLDLRENGLHSVHVRAFWGLGALQLLDLSANQLEALAPGTFAPLRALRNLSLAGNRLARLEPAALGALPLLRSLSLQDNELAALAPGLLGRLPALDALHLRGNPWGCGCALRPLCAWLRRHPLPASEAETVLCVWPGRLTLSPLTAFSDAAFSHCAQPLALRDLAVVYTLGPASFLVSLASCLALGSGLTACRARRRRLRTAALRPPRPPDPNPDPDPHGCASPADPGSPAAAAQA
[2]; control: γ1 WT
  expression_or_secretion: no change
[4]
  localisation_or_trafficking, other: percent decrease: decreases
[1]; control: γ1 WT
  other: BK channel gating modulation, other: fraction of channels not modulated: decreases

B11: BK channel γ1 subunit (LRRC26): N147Q (protein)
parent chain: B10 parent chain
[2]; control: γ1 WT
  expression_or_secretion: no change
[4]
  localisation_or_trafficking, other: percent decrease: decreases

From publication PMC8892010
